Molecular target: T1, Neo12 (neoantigen; source protein not named) peptide on HLA-A*02:01 (human)
T1 peptide: YLTHRVDVI
Assay: multimer staining

B1: Neo12 neoTCR (TCR, V domains shown)
Valpha: QKEVEQDPGPLSVPEGAIVSLNCTYSNSAFQYFMWYRQYSRKGPELLMYTYSSGNKEDGRFTAQVDKSSKYISLFIRDSQPSDSATYLCAMSEDYKLSFGAGTTVTVRA
Vbeta: ETGVTQTPRHLVMGMTNKKSLKCEQHLGHNAMYWYKQSAKKPLELMFVYSLEERVENNSVPSRFSPECPNSSHLFLHLHTLQPEDSALYLCASSQSRGAQQYFGPGTRLTVT
- binding result: recognises

Reference: patent US20250250587A1 (published 2025)
